The source of these data is article doi:10.1101/558098.

Like-named read-outs stand apart in the source and are kept apart here.

What all share (assay): EMSA
(In general: In EMSA bound probe runs differently from free probe, usually more slowly.)

The target in data set [1] is T1, YBX1 (human, UniProt P67809 1-324).
Data set [2] has as its target T2, IMP1 (human, UniProt Q9NZI8 1-577).
In data set [3] the target is T2, IMP1. This is another data set of the same source.
The target of data set [4] is T1, YBX1. This is another data set of the same source.
Data set [5] concerns the target T2, IMP1. The source holds these as a separate data set.
The target in data set [6] is T1, YBX1. This is another data set of the same source.
Data set [7] has as its target T1, YBX1. This is another data set of the same source.
Data set [8] addresses T2, IMP1. This is another data set of the same source.
The target in the next data set is IMP1_KH1-4mut (human, UniProt Q9NZI8 1-577, K213E;E214L;K294E;E295L;K423E;K424L;K505E;G506L).
Sequence of IMP1_KH1-4mut (Q9NZI8 whole entry K213E/E214L/K294E/E295L/K423E/K424L/K505E/G506L): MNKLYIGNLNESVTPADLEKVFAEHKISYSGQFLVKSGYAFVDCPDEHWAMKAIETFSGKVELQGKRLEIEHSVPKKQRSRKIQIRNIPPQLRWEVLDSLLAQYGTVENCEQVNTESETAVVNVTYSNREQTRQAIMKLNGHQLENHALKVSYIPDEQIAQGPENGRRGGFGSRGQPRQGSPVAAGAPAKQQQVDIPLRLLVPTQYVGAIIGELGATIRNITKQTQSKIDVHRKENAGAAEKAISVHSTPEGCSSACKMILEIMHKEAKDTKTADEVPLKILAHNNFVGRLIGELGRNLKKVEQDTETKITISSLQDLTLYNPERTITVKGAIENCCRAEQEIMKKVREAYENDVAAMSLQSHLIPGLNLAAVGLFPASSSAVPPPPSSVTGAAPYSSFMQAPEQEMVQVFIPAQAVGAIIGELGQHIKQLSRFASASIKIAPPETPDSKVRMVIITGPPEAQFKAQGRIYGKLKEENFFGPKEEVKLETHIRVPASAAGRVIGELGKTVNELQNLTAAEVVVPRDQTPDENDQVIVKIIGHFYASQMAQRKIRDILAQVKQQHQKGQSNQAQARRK

T2 sequence (Q9NZI8 whole entry): as the sequence (Q9NZI8 whole entry K213E/E214L/K294E/E295L/K423E/K424L/K505E/G506L) above, with E213K, L214E, E294K, L295E, E423K, L424K, E505K, L506G counted along it
T1 sequence (P67809 whole entry): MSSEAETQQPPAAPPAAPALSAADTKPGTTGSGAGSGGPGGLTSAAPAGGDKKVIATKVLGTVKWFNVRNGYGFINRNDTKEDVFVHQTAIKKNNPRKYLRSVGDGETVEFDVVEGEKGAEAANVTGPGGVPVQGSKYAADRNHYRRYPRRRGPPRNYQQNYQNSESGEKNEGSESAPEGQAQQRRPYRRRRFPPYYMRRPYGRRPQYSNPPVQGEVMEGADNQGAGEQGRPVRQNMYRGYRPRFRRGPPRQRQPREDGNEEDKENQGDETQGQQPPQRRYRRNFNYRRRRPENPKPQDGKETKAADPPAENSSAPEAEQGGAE

B1: ACTB exon 5 (ssRNA)
RNA: not shown
B1: the binding result with YBX1 [1] is reported as “binds”; with IMP1 [2], “no binding”.

B2: C-MYC 3'UTR (ssRNA)
RNA: GGAAAAGUAAGGAAAACGAUUCCUUCUAACAGAAAUGUCCUGAGCAAUCACCUAUGAACUUGUUUCAAAUGCAUGAUCAAAUGCAACCUCACAACCUUGGCUGAGUCUUGAGACUGAAAGAUUUAGCCAUAAUGUAAACUGCCUCAAAUUGGACUUUGGGCAUAAAAGAACUUUUUUAUGCUUACCAUCUUUUUUUUUUCUUUAACAGAUUUGUAUUUAAGAAUUG
Regarding B2, the binding result in the data set with IMP1 [3] and with YBX1 [4] was “binds” in each case.

B3: ACTB 3'UTR (ssRNA)
RNA: GGCGGACUAUGACUUAGUUGCGUUACACCCUUUCUUGACAAAACCUAACUUGCGCAGAAAACAAGAUGAGAUUGGCAUGGCUUUAUUUGUUUUUUUUGUUUUGUUUUGGUUUUUUUUUUUUUUUUGGCUUGACUCAGGAUUUAAAAACUGGAACGGUGAAGGUGACAGCAGUCGGUUGGAGCGAGCAUCCCCCAAAGUUCACAAUGUGGCCGAGGACUUUGAUUGCACAUUGUU
For B3, the binding result with IMP1 [5] and with YBX1 [6] was “binds” each time.

B4: C-MYC CRD (ssRNA)
RNA: GGACCAGAUCCCGGAGUUGGAAAACAAUGAAAAGGCCCCCAAGGUAGUUAUCCUUAAAAAAGCCACAGCAUACAUCCUGUCCGUCCAAGCAGAGGAGCAAAAGCUCAUUUCUGAAGAGGACUUGUUGCGGAAACGACGAGAACAGUUGAAACACAAACUUGAACAGCUACGGAACUCUUGUGCG
Take B4: the binding result in the data set with YBX1 [7] and in the data set with IMP1 [8] was “binds” each time. Also, the binding signal with IMP1_KH1-4mut was ~10 fold reduction vs wild-type IMP1.
